Source: patent US20240182988

Biological target: TtCsm complex (Thermus thermophilus) (UniProt Q53W19+Q53WF6+Q53WF5+Q53WF4+Q53W18)
Assay: cleavage_in_vitro

crRNA targeting SARS-CoV-2 N gene (N1) ; SARS-CoV-2 N1 target RNA
activity: > 95 % cleaved
